Values quoted from earlier work as cited in paper PMC3201939.

Target: Cys22 (UniProt position 23, FIKPTCPYCRR)

Glutaredoxin 1 (Grx1, thioltransferase) (Homo sapiens)
pKa: 3.5
